Assay: soluble on expression in E. coli; label from the status in PepcDB or PDB records

Row | Sequence | soluble on expression in E. coli
1 | MGSDKIHHHHHHMLRAGWFFEGIQDNDLLKLKEACKAFNLDGVLLSSLVLSRLYGVCYVLLGTVDGGDLDQPFDLNKLGIGRLEFFTVLKKKYIEADTSKYLSPKEAGGLLKQPEFYKLKLDGKSTQRIHHTRLYKFGHADVVNEEPVSVLQEVYEDLLDHAAVKKASASLVHESKIDVIRTPNLVDKIKEDMKSVAERFLSVGLLKGLNGMIVLDKEEEYDSKSYSFGGLPDLMREFSIQAAGAADMPYTILFGQSPAGMNATGEHDTRNYYDSIATKQTWSLKPFMMKLLRVIVQTTFGRQIPSLDVVFNPLWQLDAKVRSEVEKANAERDSKYLEMGIITEPQIAKQLVIDGVYSVIDEAHIKELETMVKLNDNDNSDPETTPPAGEET | not soluble
2 | GMTQTTPQPDPSRLRDELVRLHGKASPEWDSLVRLDPRFVDAYLKFAGVPQRRNHLDDKTRAFIALAADACATQLYAPGVARHIERALSFGATREELIEVLELVSTIGIHTSNVGVPVLLEVLEEEGLRKGAPPLDERRQKLKAEFETNRGYWHPTWEGLLELDPDLFEAYVEFSSVPWRTGVLSPKIKEFMYCAFDASATHLYVPGLKLHIRNALRYGATAEELMELLEIVSVTGIHGAELGAPLLEAALKRSGAAAGEPHA | soluble
3 | MRNVLKAETLERKFPLLSVENGCIVSKDADLTVAFEVELPELYTVTAEEYEAMHSTWIKAARVLPEHSIVCKQDWFTKESYRPQNGGEEQSFLSRSYERHFNERPYLNHRCFLYLTKTTRERNRRQSDFSTLCRGFLLPREITDKDMAARFLEAVEQFEHIVNDSGHIRLRRLETEEITGTRERPGLVEKYLSLSMEDETAVLQDICLKPGRMRIGDKRLCLHTLSDTEDLPGKLSTDMRYERMSTDRSDCRLSFAAPVGLLLSCNHIYSQYVFIDNAQKILQMMEKNSRNMLSLSQYSRSNAVNQEWTEMYLDEAHTKGVLPVRCHCNVIAWAEDAEEFRRIRNDTGSQLAMMECTPRYNTVDTPVLYWAGIPGNAGDFPAEESFYTFLEQAVCLFAGETNYRSSPSPFGIRMADRQNGIPVHVDISDLPMKRGIITNRNKFILGPSGSGKSFFTNHLVRNYYEQGAHILLVDTGNSYQGLCRMIHERTRGGDGIYITYEEDNPISFNPFYTDSGQFDVEKRESIKTLILTLWKREDEAPKRSEEVALSGAVNAYIRKITENREARPDFNGFYEFVDGDYRRMIAEKKVREKDFDIDGFLNVLEPFYKGGDYDFLLNSDRELDLTNRRFIVFELDNISGNKVLLPVVTLIIMETFIAKMRRLKGIRKVILIEECWKALMSANMSGYIQYLFKTVRKYFGEAVVVTQEVDDIISSPIVKEAIINNSDCKILLDQRKYMNKFEHIQRLLGLTEKEKSQILSINQANHPGRFYREVWIGLGGTRSAVYATEVSAEEYFTFTTEESEKLEVQRLAEELDGNLELAIRRMAERKREEQRQVSIPKREQ | not soluble
4 | MFHCKGLYMSDQNDKLKNLKTSSMDRRLSIAKASLLAGTRWATASATSMFSSEAEKEKKRKKAMTEQANYLVSEIGKLKGSIVKIGQMMALYGEHFLPEEITQALNTLNNQTVALAWPAIKAHLQEQLGSKLDDLIIDHEPIGTASLAQVHRATRKSDGLELVLKIQYPGVAEAIDSDMSLFKNMLKLTRMVPQTREFDQWFDEVREMMHREVSYDIEAATTRRFAERLKTDPRYAVPQIIDAYCTTKILCMTFERGVPINSPVMLSLPQERRNKLGEASLEIAVREIFEWGEMQTDPNFGNYLVRLGNGTDIQDKIVLLDFGAIRQFDEHLLSVARNLIRAGYNHSNEEMVRAMTGYSFFDSIPESIKPDMAKVFLLATEAFSCPENNPDMPTGLMDEDNRYDWKKSQLHSRVMQQASKSMASRYFSVPPKEFMFISRKFIGAYTFMTVIEAKTNVRRMISHFVK | soluble
5 | MGSDKIHHHHHHMLKIDNLTKTLENKKVISGISFSLKPSQIVGLIGRNGVGKTTLFRLISGEYVPDQGRVTSDESADARSEIFYLDSPDNFTNAFTANQLARIFKVSYPQLDIDWFKNLLKTNNLSLNKKLSGMSKGQRGLILAISAITSKSKYIFLDEPLDGLDLIIRDQVKQMLITAVSNSDTSVMIASHNLEELDFLADRIILLKNGKIEKDYLPGEELKTANVAKLQMVIEGELPKVVSECGHILEKRGHLYVVLFKDYNSKVASRIKRTKAQYIEQLPVNSDDIFRATFEEDYRLRQSAGKRTNK | not soluble
6 | MSLDTPDYKRVVLKLSGEALAGNDGFGINPSVVNLISAQIKEVVELGVEVAIVVGGGNIWRGKLGSEMGMDRAAADQMGMLATIMNSLSLQDSLENIGVATRVQTSIDMRQIAEPYIRRKAIRHLEKGRVVIFAGGTGNPYFSTDTAAALRAAEIEADVILMAKNNVDGVYNADPKLDENAKKYEELSYLDVIKEGLEVMDTTASSLSMDNDIPLIVFSFTEQGNNIKRVILGEKIGTTVRGKKEGHHHHHH | soluble
7 | MKEEEKTRLVIVQGPTASGKSALALELAERIGGEIVNADSMQVYRGMDIGTAKPSQEERRRVPHHLYDIVDPKVNFTAADFREHASRAIADIERRGKRVILVGGTGLYIRILTQGLVASPGGDDNIRRELEDQAHGEGLESLHRRLAAVDPVAAARLHPNDGVRIVRALEVFLLTGRPLSAFQEAHRFADEPYRCLKLGITVERELLYRRVEERVDRMIAEGLVEEVRGLLSAGYPATLKAMGSIGYREICAHLAGEFSLDEAMRLIKQNTRQYAKRQMTWFRRDSEIIWVEYPGKFDSILSTVMGFYHLEHHHHHH | soluble
8 | PVYMVYVSQDRLTPSAKHAVAKAITDAHRGLTGTQHFLAQVNFNEQPAGNVFLGGVQQGGDTIFVHGLHREGRSADLKGQLAQRIVDDVSVAAEIDRKHIWVYFGEMPAQQMVEYGRFLPQPGHEGEWFDNLSSDERAFMETNVDVSRT | soluble
9 | GHNLSYSVSANLSNYDARITRYDNPEKVFAKSYYPGMKLGEIWGYHVDGLFASDEEAAQYSSQVDLGVVAKNLPQGTWRAGDLKFADLDGDGKISVGEDSALNPGDMKIIGNELPTLQYGFSGSLNYMGFDIYAFFQGTGNHYWYPNGYNYQFWGSFSDPVAGYIPRNFIDQCWSKDNPGAYFPRPLGQSAKNGQLSFVNDRYLQNIRYMRFKNLTIGYSIPGKILSKVSIQQLRVYFTAENLCYWSPIKKHSKYIDPEAAFSRSSNQLNAMYYPWAKTYMFGIDITL | not soluble
10 | SYLYTLYSDVRTEVAKMERVAWLEVVGKFETEKLTPNSLYEVVFVVKLIDSAKGWDFRVNFKLVLPTGETKERRENVNLLERNKWVEIPAGEFMISPEHLSGKIEFSMLEVKSDQWKSGLIVKGVAIRPKN | soluble
11 | MKPLKRHPALIGLSRDHHHSLSLCVRLLRTPEERHRDELEPHFSELETHFREEETKFAPIWQNVAPELKQRFEKDHARLRQMMASPEYGNAAWNTAFATTLRDHARFEERELFPAAEPFLPA | not soluble
12 | MFILSAQRLSGTQVFRRLAEGCTGYSVSSGCRQRRRCCPGAPQRPRRVRVNALQLQSGLADPLDPKSEAEVREHLRSNSPAERALGINYARYLDESTRYDILLEMMEDTDPQVRYAAVTQLATVGSHDRQRTLKAVRKILWNTEEDASVRAGAADVLGGLRFHEAFPDLEKLFHESKDWVVRFSIIAALGEMGVREAFPILVEALHANKEPLVQLAAIGALGELGDERARVYLEPLVNSSDASIVERARFALDALDARGSERT | not soluble
13 | DAFTDQKIRQRYADLPGELHIIELEKDKNGLGLSLAGNKDRSRMSIFVVGINPEGPAAADGRMRIGDELLEINNQILYGRSHQNASAIIKTAPSKVKLVFIRNEDAVNQMA | soluble
14 | MIWRLIMLIDRFGRPVTNLRISLTKECNLSCFYCHREGQLDGERFMTPEEIERIVRVASRLGIKKVKLTGGEPTIRKDILEIIRRLKPYVVDLSLTTNGTTMYVLAEKLKEAGLDRVNISLDTLDRKKYKMITGFNVLDEVIKGIKKATKLFYPVKLNMVVMKGVNDDEIWDMMRFAGEVNAILQLIELEVPREMENSQFFKDFFYPLKPLEEKFEKLAVKVKERRMHRRRKYFIPIDGKIVEVEVVRSMHNTVFCMNCTRLRLTADGYLKTCLLRRDDLIDILGPLRNGASDADLIEIFKRAVLLRRPYWTSNSSLEHHHHHH | soluble

From the DeepSol protein solubility set
